Like-named read-outs stand apart in the source and are kept apart here.
Columns and labels:
HLA-B0801 (human) [1] = test: competition with 125I-labelled probe peptide, purified HLA
HLA-A*0101 (human) = test: competition with 125I-labelled probe peptide on purified HLA-A*0101
HLA-A0101 (human) = test: competition with 125I-labelled probe peptide, purified HLA
HLA-B*0702 (human) = test: competition with 125I-labeled probe peptide, purified HLA
HLA-B0702 (human) [2] = test: competition vs 125I-labelled probe peptide, purified soluble HLA
HLA-DRB1*0101 (human) = test: competition with 125I-labelled probe peptide on purified HLA-DR; details: remark: other sources report otherwise
HLA-B0702 (human) [3] = test: competition vs 125I probe peptide, purified HLA; details: remark: other sources report otherwise
HLA-B0702 (human) [4] = test: competition with 125I-labelled probe peptide on purified soluble HLA; details: remark: other sources report otherwise
HLA-B0702 (human) [5] = details: remark: other sources report otherwise
HLA-B0801 (human) [6] = test: competition vs 125I probe peptide, purified HLA; details: remark: other sources report otherwise
HLA-A0301 (human) = test: competition vs 125I-labelled probe peptide, purified soluble HLA

B1: … (peptide)
peptide: YLKGSSGGPL
modifications: not checked
- Ki (HLA-B0801 (human) [1]): 10 nM

B2: … (peptide)
peptide: ARALAHGVRV
modifications: not checked
- Ki (HLA-Cw0602 (human)): 9880 nM

B3: … (peptide)
peptide: FTDNSSPPA
modifications: not checked
- IC50 (HLA-A*0101 (human)): 10 nM
- Ki (HLA-A0101 (human)): 10 nM

B4: … (peptide)
peptide: AAKLSALGL
modifications: not checked
- IC50 (HLA-B*0702 (human)): 277 nM
- Ki (HLA-B0702 (human) [2]): 277 nM

B5: … (peptide)
peptide: LHGPTPLLY
modifications: not checked
- Ki (HLA-A0101 (human)): 20000 nM

B6: … (peptide)
peptide: SYTWTGALITPCAAE
modifications: not checked
- IC50 (HLA-DRB1*0101 (human)): 5.63 nM

B7: … (peptide)
peptide: QPRGRRQPI
modifications: not checked
- Ki (HLA-B0702 (human) [3]): 1 nM
- Ki (HLA-B0702 (human) [4]): 1 nM
- Ki (HLA-B0702 (human) [5]): < 1000 nM
- Ki (HLA-B0801 (human) [1]; remark: other sources report otherwise): 3 nM

B8: … (peptide)
peptide: EARQAIRSL
modifications: not checked
- Ki (HLA-B0801 (human) [6]): 9 nM

B9: … (peptide)
peptide: YLFNWAVRTK
modifications: not checked
- Ki (HLA-A0301 (human)): < 1000 nM

From patent US20060093617A1
